From publication doi:10.1101/779439

Target: peptide of CD3 zeta chain containing SNID2 (residues 115-135)
Assay: ITC

| Substance | Kd [µM] |
| --- | --- |
| SIVmac239 Nef full core domain (residues 90-263), His-tagged, as used for ITC (domain or fragment) | 5 |
| HIV-2 consensus Nef core domain (residues 90-256) (domain or fragment) | 12 |
